Measured values as given in paper PMC3510509, “Binding of two DNA molecules by type II topoisomerases for decatenation” (Nucleic Acids Research, 2012).

Biological target: T1, Mycobacterium smegmatis DNA gyrase subunit A (GyrA) (M. smegmatis, UniProt P48354 1-842)
T1 construct: DNA gyrase subunit A, Mycobacterium smegmatis; also called MsGyrA; M. smegmatis GyrA
Assay: cross-linking; glutaraldehyde; gyrase subunits mixed 1:1 in supercoiling reaction buffer, on ice 30 min, then cross-linked at 37°C for 30 min; products resolved on SDS-PAGE, silver stained
Conditions: both partners purified

B1: Mycobacterium smegmatis DNA gyrase subunit B (GyrB) (natural protein, M. smegmatis, UniProt A0QNE0 1-675, looked up)
chain: MAAQKNNAPKEYGADSITILEGLEAVRKRPGMYIGSTGERGLHHLIWEVVDNAVDEAMAGFATRVDVKIHADGSVEVRDDGRGIPVEMHATGMPTIDVVMTQLHAGGKFDGETYAVSGGLHGVGVSVVNALSTRLEATVLRDGYEWFQYYDRSVPGKLKQGGETKETGTTIRFWADPEIFETTDYNFETVARRLQEMAFLNKGLTIELTDERVTAEEVVDDVVKDTAEAPKTADEKAAEATGPSKVKHRVFHYPGGLVDYVKHINRTKTPIQQSIIDFDGKGPGHEVEIAMQWNAGYSESVHTFANTINTHEGGTHEEGFRAALTSVVNRYAKDKKLLKDKDPNLTGDDIREGLAAVISVKVAEPQFEGQTKTKLGNTEVKSFVQKICNEQLQHWFEANPAEAKTVVNKAVSSAQARIAARKARELVRRKSATDIGGLPGKLADCRSTDPSKSELYVVEGDSAGGSAKSGRDSMFQAILPLRGKIINVEKARIDRVLKNTEVQSIITALGTGIHDEFDISKLRYHKIVLMADADVDGQHISTLLLTLLFRFMKPLVENGHIFLAQPPLYKLKWQRSEPEFAYSDRERDGLLEAGRAAGKKINVDDGIQRYKGLGEMDAKELWETTMDPSVRVLRQVTLDDAAAADELFSILMGEDVEARRSFITRNAKDVRFLDV
notes: DNA gyrase subunit B, Mycobacterium smegmatis, wild type; also called MsGyrB; M. smegmatis GyrB
B1: binds.
